One substance from article PMC2048530 can be followed below.

This assay concerns the target DC-SIGN-Fc (human) (UniProt Q9NNX6).
Chain of UniProt Q9NNX6 (Q9NNX6 59-404): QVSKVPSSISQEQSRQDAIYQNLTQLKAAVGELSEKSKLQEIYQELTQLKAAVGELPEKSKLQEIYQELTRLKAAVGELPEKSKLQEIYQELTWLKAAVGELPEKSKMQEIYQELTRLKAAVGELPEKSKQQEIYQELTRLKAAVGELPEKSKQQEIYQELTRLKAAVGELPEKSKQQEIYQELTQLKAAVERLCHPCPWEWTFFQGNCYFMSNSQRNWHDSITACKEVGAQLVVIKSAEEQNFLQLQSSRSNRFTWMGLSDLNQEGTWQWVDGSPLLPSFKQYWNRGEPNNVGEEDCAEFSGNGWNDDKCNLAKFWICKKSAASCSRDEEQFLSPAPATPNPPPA

In turn, “HIV-1 JR-FL gp120 (recombinant monomeric gp120; mock-treated form M-gp120) (natural protein)” displayed an IL-10 induction in iMDDCs by JR-FL gp120 (3 μg/ml) at 24 h after pre-incubation of the cells with anti-DC-SIGN mAb AZN-D1 (40 μg/ml); DC-SIGN here is the whole receptor on MDDCs of 50 % reduction.
